The record followed here is publication PMC8896507.

The target of assay [1] is DNA-PK assembly (KU-DNA-DNA-PKcs) (human (endogenous in HeLa)) (UniProt P78527). Kind of assay: SEC-MALS + other: SAXS. On the technique in general: SEC sorts molecules by how far they enter the pores of the column.
Assay [2] concerns the target KU (KU70/KU80 heterodimer) (human (endogenous in HeLa)) (UniProt P12956). Kind of assay: SEC-MALS + other: SAXS.

As for “DNA-PK assembly (KU-DNA-DNA-PKcs) (from UniProt P78527 1-4128; P12956 1-609; P13010 1-732) (complex)”, in assay [1], the weight of the dimer in the two-state SAXS fit was 24%.
Consider “KU (KU70/KU80 heterodimer) (from UniProt P12956 1-609; P13010 1-732) (complex)”, for which the stoichiometry N in assay [2] was 2.

By stoichiometry N is commonly meant the number of molecules, sites or subunits per partner or assembly.
